Broadly, the Kd is the equilibrium constant for the complex coming apart.

First the molecules themselves.
T1: recombinant human NOTCH1 protein (human, UniProt P46531 1426-1731, limits assumed)
T1 construct: NOTCH1 proteins'
T1 sequence (looked up): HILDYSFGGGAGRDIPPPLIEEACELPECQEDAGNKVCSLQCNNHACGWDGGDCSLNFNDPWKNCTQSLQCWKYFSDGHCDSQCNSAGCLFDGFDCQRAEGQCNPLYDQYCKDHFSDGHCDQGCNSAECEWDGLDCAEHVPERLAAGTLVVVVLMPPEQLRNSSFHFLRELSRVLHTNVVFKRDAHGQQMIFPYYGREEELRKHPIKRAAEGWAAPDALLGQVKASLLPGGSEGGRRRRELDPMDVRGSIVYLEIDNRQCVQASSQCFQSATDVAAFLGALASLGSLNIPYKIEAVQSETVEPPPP

B1: humanized antibody 52M51-H4L3 (antibody, human IgG2, lambda, V domains shown)
VH: QVQLVQSGAEVKKPGASVKISCKVSGYTLRGYWIEWVRQAPGKGLEWIGQILPGTGRTNYNEKFKGRVTMTADTSTDTAYMELSSLRSEDTAVYYCARFDGNYGYYAMDYWGQGTTVTVSS
VL: SQAVVTQEPSLTVSPGGTVTLTCRSSTGAVTTSNYANWFQQKPGQAPRTLIGGTNNRAPGVPARFSGSLLGGKAALTLSGAQPEDEAEYYCALWYSNHWVFGGGTKLTVLG
notes: Human IgG2 heavy chain and lambda (IgLC1) light chain; also called OMP-52M51; ATCC PTA-9549
B2: humanized antibody 52M51-H4L4 (antibody, human IgG2, lambda, V domains shown)
VH: QVQLVQSGAEVKKPGASVKISCKVSGYTLRGYWIEWVRQAPGKGLEWIGQILPGTGRTNYNEKFKGRVTMTADTSTDTAYMELSSLRSEDTAVYYCARFDGNYGYYAMDYWGQGTTVTVSS
VL: SQTVVTQEPSFSVSPGGTVTLTCRSSTGAVTTSNYANWYQQTPGQAPRTLIGGTNNRAPGVPDRFSGSILGNKAALTITGAQADDESDYYCALWYSNHWVFGGGTKLTVLG
notes: Human IgG2 heavy chain and lambda (IgLC1) light chain
B3: murine monoclonal antibody 52M51 (antibody, mouse IgG1, V domains shown)
VH: QVQLQQSGAELMKPGASVKISCKAAGYTMRGYWIEWIKQRPGHGLEWIGQILPGTGRTNYNEKFKGKATFTADTSSNTANMQLSSLTSEDSAVYYCARFDGNYGYYAMDYWGQGSSVTVSS
VL: QAVVTQESALTTSPGETVTLTCRSSTGAVTTSNYANWVQEKPDHLFTGLIGGTNNRAPGVPARFSGSLIGDKAALTITGAQTEDEAIYFCALWYSNHWVFGGGTKLTVLG
notes: Mouse antibody purified from hybridoma supernatant; also called 52M51 anti-NOTCH1 antibody; ATCC PTA-9405

This experiment concerns the target T1, recombinant human NOTCH1 protein. Description: SPR (Biacore 2000), NOTCH1 protein amine-coupled to chip, IgG injected. How it is done: The affinities for human and mouse NOTCH11 were determined using a Biacore 2000 instrument. Briefly, recombinant human and mouse NOTCH1 proteins were immobilized on a CMS chip using standard amine based chemistry (NHS/EDC). Different antibody concentrations were injected over the protein surfaces and kinetic data were collected over time. The data was fit using the simultaneous global fit equation to yield dissociation constants (KD, nM) for each NOTCH1 protein (Table 2).
(In general: In SPR one partner is held on a chip, and binding of the other changes the refractive index at the surface.)
As to B1, the Kd is 4.33 nM.
Under B2 stands 7.35 nM; under B3, 2.86 nM.

The record behind these values is patent US20150232570A1 (ONCOMED PHARMACEUTICALS, published 2015).
